Data taken from article PMC4627094.

Legend:
APOBEC3G (A3G) [1] = target: T1, APOBEC3G (A3G) (human, UniProt Q9HC16 1-384); assay: fluorescence anisotropy; 10 mM MgCl2; 40 mM Tris pH 7.2, 50 mM NaCl, 10 mM MgCl2, 1 mM DTT, 0.1% Triton X-100, 2% glycerol, 37 C 20 min; FA with 2 nM labeled NA; UV cross-linking in 1X PBS, 37 C 20
APOBEC3G (A3G) [2] = target: T1, APOBEC3G (A3G); assay: competition (fluorescence anisotropy); vs labeled 25 nt Sub RNA (N2); 40 mM Tris pH 7.2, 50 mM NaCl, 10 mM MgCl2, 1 mM DTT, 0.1% Triton X-100, 2% glycerol, 37 C 20 min; FA with 2 nM labeled NA; UV cross-linking in 1X PBS, 37 C 20
APOBEC3G (A3G) [3] = target: T1, APOBEC3G (A3G); assay: competition (fluorescence anisotropy); vs labeled 25 nt Sub ssDNA (N1); 40 mM Tris pH 7.2, 50 mM NaCl, 10 mM MgCl2, 1 mM DTT, 0.1% Triton X-100, 2% glycerol, 37 C 20 min; FA with 2 nM labeled NA; UV cross-linking in 1X PBS, 37 C 20
APOBEC3G (A3G) [4] = target: T1, APOBEC3G (A3G); assay: EMSA; 37 C, 2.0 uM RNA; 40 mM Tris pH 7.2, 50 mM NaCl, 10 mM MgCl2, 1 mM DTT, 0.1% Triton X-100, 2% glycerol, 37 C 20 min; FA with 2 nM labeled NA; UV cross-linking in 1X PBS, 37 C 20

T1 sequence (Q9HC16 whole entry): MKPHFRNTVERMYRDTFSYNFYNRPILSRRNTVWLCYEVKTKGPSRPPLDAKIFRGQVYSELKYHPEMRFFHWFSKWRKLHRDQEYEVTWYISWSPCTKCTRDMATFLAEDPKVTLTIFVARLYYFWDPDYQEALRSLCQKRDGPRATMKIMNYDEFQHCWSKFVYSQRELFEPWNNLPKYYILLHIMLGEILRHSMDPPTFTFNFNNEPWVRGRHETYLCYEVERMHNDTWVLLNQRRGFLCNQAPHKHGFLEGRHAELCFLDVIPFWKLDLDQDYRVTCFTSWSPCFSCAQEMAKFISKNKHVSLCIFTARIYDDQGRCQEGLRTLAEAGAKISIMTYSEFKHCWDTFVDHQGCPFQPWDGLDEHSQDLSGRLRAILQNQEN

TTATTUUUAAGGATTTATTTATTTA (ssDNA, dU at positions 6-8) [25 nt Sub ssDNA, Alexa 647]
Kd (APOBEC3G (A3G) [1]): 0.0038 µM

UUAUUUUUAAGGAUUUAUUUAUUUA (ssRNA) [25 nt Sub RNA, unlabeled]
IC50 (APOBEC3G (A3G) [2]): 0.115 µM
IC50 (APOBEC3G (A3G) [3]): 0.057 µM

TTATTUUUAAGGATTTATTTATTTA (ssDNA, dU at positions 6-8) [25 nt Sub ssDNA (unlabeled or 32P)]
IC50 (APOBEC3G (A3G) [2]): 0.022 µM
IC50 (APOBEC3G (A3G) [3]): 0.015 µM

UUAUUUUUAAGGAUU (ssRNA) [15 nt Sub RNA, Alexa 647]
Kd (APOBEC3G (A3G) [1]): 0.0044 µM

TTATTUUUAAGGATT (ssDNA, dU at positions 6-8) [15 nt Sub ssDNA, Alexa 647]
Kd (APOBEC3G (A3G) [1]): 0.01 µM

CAUAUAUGAUACAAUUUGAUCAGUA (ssRNA) [25 nt ApoB RNA]
binding result (APOBEC3G (A3G) [4]): binds

UUAUUUUUAAGGAUUUAUUUAUUUA (ssRNA) [25 nt Sub RNA, Alexa 647]
Kd (APOBEC3G (A3G) [1]): 0.0029 µM
